We go through one molecule from article PMC12866175 (European journal of nuclear medicine and molecular imaging, 2021).

Molecules are shown by their SMILES.

On the set-up of data set [1]: species or system BALB/c mice. Conditions: mouse, in vivo.
The subject of data set [2] is non-tumor-bearing BALB/c mice. Description: Toxicity, single intravenous injection, 5 months. Format: in vivo.

For the molecule `C[C@@H](O)[C@H](NC(=O)[C@@H]1CSSC[C@H](NC(=O)[C@@H](Cc2ccccc2)NC(=O)CN2CCN(CC(=O)O)CCN(CC(=O)O)CCN(CC(=O)O)CC2)C(=O)N[C@@H](Cc2ccc(O)cc2)C(=O)N[C@H](Cc2c[nH]c3ccccc23)C(=O)N[C@@H](CCCCN)C(=O)N[C@@H]([C@@H](C)O)C(=O)N1)C(=O)O` [[^225Ac]Ac-DOTA-TATE, metal not drawn], the “clearance of activity from the tissues” value in data set [1] is on record as “largely cleared”. In data set [2] (mouse, in vivo), the “ALKP among the cohorts” value is given as “No significant differences”, the “ALT among the cohorts” value is “No significant differences”, the “AST among the cohorts” value was “No significant differences” and the “Blood BUN” value was “in the normal range”. Moreover, in data set [2] (mouse, in vivo), the Blood creatinine entry is recorded as “in the normal range”, the “acute kidney damage by pathology” value is listed as “no acute kidney damage” and the “damage in the liver or other tissues by pathology” value is on record as “no treatment related damage”. In addition, in data set [2] (to 5 months p.i.), the survival result is listed as “all animals survived”.
